# Results taken from article PMC6739322, “The molecular basis of chaperone-mediated interleukin 23 assembly control” (Nature Communications, 2019).
# T1: IL-12β (purified alone) (human, UniProt P29460 23-328)
# T1 construct: interleukin-12 subunit beta (IL-12β), human; The C-terminal His-tag has a TEV cleavage site and is separated by a GS linker, so residues may be left after cleavage; also called unlabeled IL-12β; source: ExpiCHO, transiently transfected, purified from supernatant (HisTrap, TEV, SEC); not shown: His-tag, C-terminal, cleaved
# T1 sequence (looked up): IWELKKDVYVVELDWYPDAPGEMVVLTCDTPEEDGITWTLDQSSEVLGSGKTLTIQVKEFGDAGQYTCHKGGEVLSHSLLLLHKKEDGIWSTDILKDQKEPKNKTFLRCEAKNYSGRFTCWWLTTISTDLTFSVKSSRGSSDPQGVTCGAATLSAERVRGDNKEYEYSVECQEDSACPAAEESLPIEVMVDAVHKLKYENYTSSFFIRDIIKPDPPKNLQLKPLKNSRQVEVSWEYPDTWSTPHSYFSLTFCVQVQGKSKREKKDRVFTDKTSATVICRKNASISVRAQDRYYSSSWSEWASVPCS
# B1: IL-23α^C14,22V,C54S (purified) (natural protein, human)
# chain: RAVPGGSSPAWTQVQQLSQKLVTLAWSAHPLVGHMDLREEGDEETTNDVPHIQSGDGCDPQGLRDNSQFCLQRIHQGLIFYEKLLGSDIFTGEPSLLPDSPVGQLHASLLGLSQLLQPEGHHWETQQIPSLSPSQPWQRLLLRFKILRSLQAFVAVAARVFAHGAATLSP
# notes: interleukin-23 subunit alpha (IL-23α), human; The His-tag has a TEV site and is separated by a 2x GS linker, so residues may be left after cleavage; The protein was 15N-labelled for NMR; The internal disulfide C58-C70 is formed; also called IL-23α^VVS; not shown: His-tag, N-terminal, cleaved
# Molecular target: T1, IL-12β (purified alone)
# Assay: NMR titration; 1H,15N HSQC of 15N-labelled IL-23α^VVS (100 μM) without and with a two-fold molar excess of unlabeled IL-12β; 10 mM KPi pH 7.5, 298 K
# Conditions: both partners purified
binder,measurement,value
B1,binding result,binds
